Among the data in publication PMC3093367 are stoichiometry N and Kd values, retold here.

In data set [1] the target is Rift Valley fever virus nucleoprotein (N), recombinant wild type (Rift Valley fever virus (strain Smithburn)) (UniProt P21700). Description: cross-linking.
Data set [2] shares this target. Description: crystal structure.
Data set [3] addresses T1, RVFV nucleoprotein N (SEC fraction N2) (Rift Valley fever virus (strain …, UniProt D3K5I7 1-245)).
T1 sequence: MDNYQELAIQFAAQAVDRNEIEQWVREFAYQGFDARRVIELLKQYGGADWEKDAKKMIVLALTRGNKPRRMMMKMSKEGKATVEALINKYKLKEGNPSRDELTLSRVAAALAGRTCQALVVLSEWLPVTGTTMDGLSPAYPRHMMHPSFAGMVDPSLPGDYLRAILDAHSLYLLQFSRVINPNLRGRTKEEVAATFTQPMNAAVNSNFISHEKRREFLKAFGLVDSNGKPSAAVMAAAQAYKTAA
Description: SPR; RNA immobilized via biotin-NeutrAvidin; SPR (ProteOn XPR36, […]; temperature not stated. The settings on record: protein: recombinant; tags: N-terminal thioredoxin-His6 tag removed by TEV; label: 3' biotin; single strand. (In general: SPR reads the build-up and loss of mass on a sensor chip optically.)

Several values for one entry are separate records, joined by “and”; a condition that tells them apart may be missing. Equal values may be shown once.

Rift Valley fever virus nucleoprotein (N), recombinant wild type, sequence (P21700 whole entry): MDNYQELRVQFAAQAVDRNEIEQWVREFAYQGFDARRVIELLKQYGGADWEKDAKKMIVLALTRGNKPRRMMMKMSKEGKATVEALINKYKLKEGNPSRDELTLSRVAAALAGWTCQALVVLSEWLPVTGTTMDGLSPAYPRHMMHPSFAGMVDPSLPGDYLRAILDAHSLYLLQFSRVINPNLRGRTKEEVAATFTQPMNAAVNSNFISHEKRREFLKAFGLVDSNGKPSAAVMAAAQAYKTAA

The term stoichiometry N denotes the number of molecules, sites or subunits per partner or assembly. In the case of “Rift Valley fever virus nucleoprotein (N), recombinant wild type (from UniProt P21700 1-245) (natural protein)”, the stoichiometry N in data set [1] is 2 and 3 and 4; in data set [2] it was 6.
The term Kd denotes the equilibrium constant for the complex coming apart. As to GAGUUGUUAAUCUUUUUUUU (ssRNA) [RNA20-3'biotin], the Kd in data set [3] stood at 3.8 µM.
